For seven sequences, protein production results are on record in a protein production outcome set (Wang et al. 2014).

The nature of this data set: label from the status in PepcDB records.
Take “MSLAPCGLVPSARQLEWYNREMIAFFHFGINTFEEYVNEGDGKASTAIFNPTALDCRQWMQTLKAAGIPAAILTAKHADGFCLWPSKYTDYSVKNAAWKNGKGDVVREFVDACEEYGLKAGIYLGPHDRHEHLSPLYTTERYKEYYAHQLGELMSDYGKIWETWWDGAGADELTTPVYRHWYKIVREKQPDCVIFGTKNSYPFADVRWMGNEAGEAGDPCWATTDSVAIRDEAQYYKGLNEGMLDGDAYIPAETDVSIRPSWFYHAEEDSRVKSVRELWDIYCTSVGRNSVLLLNFPPDRRGLIHSTDSLHAALLKQGIDETFSTNLLRGAKVKATNVRGAKYSPEKMLDNEKNTYFAGKDGEVKADIIFTLPKTIEFDCLMIEEVIELGHRTTKWSVEYTVDGKNWITIPEATDKQAIGHKWIVRLAPVKAKQVRLRIQDGKACPAIHTFGVYKQSPVFKEGHHHHHH”: the protein production entry is “not failed”.

For “MLKKVQEHLPRQLLPAPDAITAFCHLIANWSRSELVLALTVDQQGNRAQIITTTSTKFPNLEIIAPWRDLVQGTVIDVLPFLKLPSIFFCLLSKVERIVYIPCGEPEKWCQGLLLVNPVEEPLQQLAEQKGYIAALYRQLLIHHRQSQNSFIFEAQFQDIFDTVPLGLVLIKGDSSTAMVNSYAAQWLQLPPGSHPVQIVAEHMKQGWERCDNCDELVNLFQGLAANANFSAQGECRRGEKTFLIDTHPVRGDSRLGRVWIFSDISDMRQREQALLALAWLDPLTGAFNRRFLLSRVEAYESQAATGEALLTVMIFDIDHFKRINDTYGHDQGDVVLRTLAARAKQVLESCQDGILVRWGGEEFVLLFFVAYEDQAKAVAEELCSVVRSQPVELTDQYSLSVTISLGVTLFRGGEQVLSDSIPRADQALYEAKHGGRDRWVWA”, the protein production result was “failed”.

Regarding “NGGIPHDNLVLIRMKPDENGRFGFNVKGGYDQKMPVIVSRVAPGTPADLCVPRLNEGDQVVLINGRDIAEHTHDQVVLFIKASCERHSGELMLLVRPNAVYDVVEE”, the protein production result is reported as “not failed”.

Regarding “MSIRILPENEIKPSASAFEIPPLLFANPKNLYTRRAKRLRELAKNNPLRDYLEFAAHLVDIQLTLLETAPIGNYAEKLTAYLTENQGQKPLNKQQFARDEKWLELLLALIKQCKPYATGAILTTLEFLEKASYAELNNLADHLLNERYEQVSPDQSVFIWLALSLYWTQLAQQLPRHTQAEIGERHTCPVCGSAPITSVIHLDKTQGLRYLHCALCESEWNMTRAQCSNCDESGDLNYWSFDTVEAPIKAESCGDCHSYLKVLYQEKDPYVEPLADDLASLMLDIEMEQKGFVRSGLNPFLFSIE”, the protein production result was “not failed”.

Consider “YTDESGLSELVNAAGEKLQDLELMGQKNAVRDFFKELIADSGKVAYGESQVRANLEINSVDVLLLSEDLRAERVTTKCSVCGYENKWTRRWKPGEPAPAAGNCPKCGSSLEVTDVTDIVDEFSELADKSNAKVVFVSTDFDEGSQLMNAFGGIAAILRYNTGV”, for which the protein production result is given as “not failed”.

As for “MPDKFNMQSPPFNRLTAEQQHQLRSALDVAYFRQRDVLIDAQHPVTHLHILIKGTVEERSPDGKEVFAHYANDDLFDVRAMFEELSKHQYMALEDTLSYLLPKSIFLQLYEQNGEFAAYFDNNLAKRQELIEAAAQQKNIAEFILTKVDRSIYHPPFILSPEQPIHSVTQQLKERGIDAALVELHPSDPRLAHNHAHPYAIVTRTNMLHAVMLEGRPLDTPVGEIATFPVLHVDEGDFLFNAMVMMTRQRIKRVMVCLGNQAVGLLSLIQILSAFSTHSHVLTLAIARAASIDELALAANKQRELVESLMSRGVRTRFVMELIAAVNEQIIEKAFELVVPPALHDQCCLVVLGSEGRGEQILKTDQDNALIIQDGLEWHQCQPIMETLTHTLLQLGYPLCPGKVMVNNPKWVRSQSDWKRTLTDWVKAARPEQVMDIAIFADAHAVAGNRALLAPVKAHLQHLMAGQELILAEFTRPALNFSVPLTLFGNVKSSKQGIDIKQGGIFPIVHGVRALSLEHAIDANNTFDRIEALVKKRVLEQETGDNLSEAFKLFLKLRLAQQLGNQHSTNQLDFKQLDRTERDLLRHSLHVVKKFKQWLGYHYQIRD”, the protein production result was “failed”.

As for “MGMHGAAHIVWDWNGTLFHDNAAIIGATNAAFAELGLEPITLERYRALYCVPVPKFYERLIGRLPTDAEWEIMDEIFHRYYAEHRVGCGLTEGAAELLVEWQSAGHSQSILSMYVHDELVPLVRGFGIEPHFIRVDGRTGPSGGSKAEHMVRHIGALAGVAGVDPARTVVIGDAADDAVAALHVGAQAVLYTGGSHSRASLEGVGVPVVDTLAEAVEEAGRLAA”, the protein production result is “failed”.
